Results on one molecule are retold here after patent publication US20170067880A1 (Genentech, published 2017).

Assay [1] deals with T1, MBP-SD with C-terminal His tag, expressed in S. aureus (UniProt P0AEX9 27-396 = MBP).
T1 construct: mature; One of the small SD peptide constructs, expressed in S. aureus RN4220 delta sortase; not shown: C-terminal His tag
The assay is described as follows: Western blot of MBP fusion constructs expressed in S. aureus. (In general: In western blotting, separated proteins are transferred to a membrane and probed.)

Assay [2] addresses T2, MBP-DSD with C-terminal His tag, expressed in S. aureus (UniProt P0AEX9 27-396 = MBP).
T2 construct: mature; One of the small SD peptide constructs, expressed in S. aureus RN4220 delta sortase; not shown: C-terminal His tag
The description is as above.

Assay [3] concerns the target T3, MBP-SDS with C-terminal His tag, expressed in S. aureus (UniProt P0AEX9 27-396 = MBP).
T3 construct: mature; One of the small SD peptide constructs, expressed in S. aureus RN4220 delta sortase; not shown: C-terminal His tag
The description is as above.

Assay [4] deals with T4, E. coli expressed N-terminal Unizyme tagged SdrD, incubated with S. aureus lysate (Staphylococcus aureus (USA300), UniProt Q2FJ78 36-1347, modified by incubation with cleared lysate of delta-Pan Sdr mutant Newman S. aureus; modification not identified).
T4 construct: mature; Made in E. coli 58F3, purified, captured on NiNta resin, then incubated with S. aureus lysate for 1 hr at 37 C; also called E. coli expressed Sdr protein SdrD; not shown: N-terminal Unizyme tag (ST239 vector, Genentech)
T4 sequence (Q2FJ78 36-1347): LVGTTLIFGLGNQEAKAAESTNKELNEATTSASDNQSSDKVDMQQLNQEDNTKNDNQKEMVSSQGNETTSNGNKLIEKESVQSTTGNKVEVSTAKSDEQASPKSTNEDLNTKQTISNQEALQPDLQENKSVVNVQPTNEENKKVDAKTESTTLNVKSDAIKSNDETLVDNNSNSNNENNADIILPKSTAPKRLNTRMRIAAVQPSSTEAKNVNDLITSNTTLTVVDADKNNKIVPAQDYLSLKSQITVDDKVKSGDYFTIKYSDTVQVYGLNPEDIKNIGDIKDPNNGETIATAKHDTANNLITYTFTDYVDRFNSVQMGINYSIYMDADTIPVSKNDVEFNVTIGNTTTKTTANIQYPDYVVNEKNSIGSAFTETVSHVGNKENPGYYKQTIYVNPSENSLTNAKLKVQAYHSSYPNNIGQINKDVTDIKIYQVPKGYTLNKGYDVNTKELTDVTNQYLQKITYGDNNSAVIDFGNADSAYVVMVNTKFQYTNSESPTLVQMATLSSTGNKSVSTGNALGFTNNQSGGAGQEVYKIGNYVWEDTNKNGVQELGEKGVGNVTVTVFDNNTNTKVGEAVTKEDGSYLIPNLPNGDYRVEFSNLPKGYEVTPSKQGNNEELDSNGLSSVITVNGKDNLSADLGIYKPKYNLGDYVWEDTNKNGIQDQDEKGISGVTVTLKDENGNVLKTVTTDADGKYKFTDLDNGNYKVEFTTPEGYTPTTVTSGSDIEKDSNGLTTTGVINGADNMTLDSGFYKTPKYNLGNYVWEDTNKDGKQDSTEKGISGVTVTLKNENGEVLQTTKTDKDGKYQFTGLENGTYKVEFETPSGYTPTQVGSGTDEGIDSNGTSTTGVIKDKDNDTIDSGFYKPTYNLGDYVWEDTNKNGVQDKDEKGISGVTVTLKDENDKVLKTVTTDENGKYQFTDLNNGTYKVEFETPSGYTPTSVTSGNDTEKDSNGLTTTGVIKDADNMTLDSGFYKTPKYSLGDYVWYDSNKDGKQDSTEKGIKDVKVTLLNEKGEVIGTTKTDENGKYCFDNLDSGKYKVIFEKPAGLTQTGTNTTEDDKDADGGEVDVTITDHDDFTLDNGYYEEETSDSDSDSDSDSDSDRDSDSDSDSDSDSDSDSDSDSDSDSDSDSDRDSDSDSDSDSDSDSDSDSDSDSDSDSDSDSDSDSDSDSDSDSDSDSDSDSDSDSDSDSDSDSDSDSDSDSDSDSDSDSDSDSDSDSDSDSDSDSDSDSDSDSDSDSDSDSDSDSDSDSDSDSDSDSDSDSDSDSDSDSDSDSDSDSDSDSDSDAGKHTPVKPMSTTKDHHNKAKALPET
The assay is described as follows: Western blot of NiNta-captured E. coli protein after incubation with S. aureus lysate.

Assay [5] addresses T5, E. coli expressed N-terminal Unizyme tagged SdrE, incubated with S. aureus lysate (Staphylococcus aureus (USA300), UniProt Q2FJ77 53-1120, modified by incubation with cleared lysate of delta-Pan Sdr mutant Newman S. aureus; modification not identified).
T5 construct: mature; Made in E. coli 58F3, purified, captured on NiNta resin, then incubated with S. aureus lysate for 1 hr at 37 C; also called E. coli expressed Sdr protein SdrE; not shown: N-terminal Unizyme tag (ST239 vector, Genentech)
Described as above.

Assay [6] deals with T6, E. coli expressed N-terminal Unizyme tagged SdrC, incubated with S. aureus lysate (Staphylococcus aureus (USA300), UniProt Q2FJ79 51-913, modified by incubation with cleared lysate of delta-Pan Sdr mutant Newman S. aureus; modification not identified).
T6 construct: mature; Made in E. coli 58F3, purified, captured on NiNta resin, then incubated with S. aureus lysate for 1 hr at 37 C; also called E. coli expressed Sdr protein SdrC; not shown: N-terminal Unizyme tag (ST239 vector, Genentech)
T6 sequence (Q2FJ79 51-913): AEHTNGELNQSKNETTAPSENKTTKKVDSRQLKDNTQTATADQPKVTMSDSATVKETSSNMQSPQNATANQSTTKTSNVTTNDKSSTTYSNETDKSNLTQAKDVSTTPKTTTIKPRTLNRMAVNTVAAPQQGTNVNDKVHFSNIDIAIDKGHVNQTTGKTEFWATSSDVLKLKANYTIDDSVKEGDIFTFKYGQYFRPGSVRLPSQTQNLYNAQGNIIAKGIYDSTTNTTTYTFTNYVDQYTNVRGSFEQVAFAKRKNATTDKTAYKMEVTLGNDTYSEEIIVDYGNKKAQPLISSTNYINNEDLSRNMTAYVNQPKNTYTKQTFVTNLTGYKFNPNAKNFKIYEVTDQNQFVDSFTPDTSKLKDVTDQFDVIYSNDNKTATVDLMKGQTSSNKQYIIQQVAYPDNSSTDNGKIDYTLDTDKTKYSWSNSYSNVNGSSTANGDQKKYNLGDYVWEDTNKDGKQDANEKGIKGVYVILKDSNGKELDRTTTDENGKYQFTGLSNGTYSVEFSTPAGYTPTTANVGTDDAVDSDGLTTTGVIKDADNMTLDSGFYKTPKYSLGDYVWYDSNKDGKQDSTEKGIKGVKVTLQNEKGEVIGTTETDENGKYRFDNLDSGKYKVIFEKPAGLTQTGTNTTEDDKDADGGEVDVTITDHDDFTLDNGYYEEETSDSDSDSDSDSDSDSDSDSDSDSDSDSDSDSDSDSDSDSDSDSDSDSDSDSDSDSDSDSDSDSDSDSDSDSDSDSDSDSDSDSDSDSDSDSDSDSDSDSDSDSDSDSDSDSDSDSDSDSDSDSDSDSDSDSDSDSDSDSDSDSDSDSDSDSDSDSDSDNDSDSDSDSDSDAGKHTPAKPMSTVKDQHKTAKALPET
The description is as above.

T5 sequence (Q2FJ77 53-1120): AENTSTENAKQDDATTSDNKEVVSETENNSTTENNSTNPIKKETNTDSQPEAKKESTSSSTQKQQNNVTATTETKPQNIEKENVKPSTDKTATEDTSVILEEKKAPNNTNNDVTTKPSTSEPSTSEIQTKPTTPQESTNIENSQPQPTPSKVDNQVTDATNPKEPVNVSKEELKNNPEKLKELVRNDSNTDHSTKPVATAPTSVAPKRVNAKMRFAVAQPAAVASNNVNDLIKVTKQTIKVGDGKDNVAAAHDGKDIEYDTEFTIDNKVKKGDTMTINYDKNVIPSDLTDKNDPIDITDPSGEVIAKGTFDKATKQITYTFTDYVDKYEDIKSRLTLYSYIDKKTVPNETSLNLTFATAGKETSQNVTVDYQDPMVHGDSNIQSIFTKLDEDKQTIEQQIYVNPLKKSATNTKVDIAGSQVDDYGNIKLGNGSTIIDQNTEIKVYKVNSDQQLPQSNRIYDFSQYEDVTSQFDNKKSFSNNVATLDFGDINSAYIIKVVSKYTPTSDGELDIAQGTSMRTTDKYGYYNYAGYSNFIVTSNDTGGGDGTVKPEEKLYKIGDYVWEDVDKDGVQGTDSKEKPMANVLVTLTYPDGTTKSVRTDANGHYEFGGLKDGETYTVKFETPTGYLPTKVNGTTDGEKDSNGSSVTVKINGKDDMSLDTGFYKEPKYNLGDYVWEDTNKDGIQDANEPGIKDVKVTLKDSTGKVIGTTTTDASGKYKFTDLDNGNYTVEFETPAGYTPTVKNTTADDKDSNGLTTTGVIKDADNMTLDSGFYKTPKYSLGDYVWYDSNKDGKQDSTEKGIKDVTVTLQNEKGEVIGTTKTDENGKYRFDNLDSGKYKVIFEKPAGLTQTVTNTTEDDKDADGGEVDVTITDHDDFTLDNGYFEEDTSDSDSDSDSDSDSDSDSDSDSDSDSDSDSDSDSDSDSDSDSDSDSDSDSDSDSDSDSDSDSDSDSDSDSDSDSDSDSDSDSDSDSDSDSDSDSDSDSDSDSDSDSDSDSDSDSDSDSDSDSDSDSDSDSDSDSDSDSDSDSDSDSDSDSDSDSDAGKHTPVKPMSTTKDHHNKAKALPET

B1: antibody F1 (antibody, V domains shown)
VH: EVQLLESGGGLVQPGGSLRLSCAASGFTLSRFAMSWVRQAPGRGLEWVASINNGNNPYYARSVQYRFTVSRDVSQNTVSLQMNNLRAEDSATYFCAKDHPSSGWPTFDSWGPGTLVTVSS
VL: DIQLTQSPSALPASVGDRVSITCRASENVGDWLAWYRQKPGKAPNLLIYKTSILESGVPSRFSGSGSGTEFTLTISSLQPDDFATYYCQHYIRFPYTFGQGTKLEIKR
notes: also called rF1; recombinant F1
In the case of B1, the binding result in assay [1] is recorded as “no binding”; in assay [2], “no binding”; in assay [3] it was “no binding”; in assay [4], “binds”; in assay [5] it was “binds”; in assay [6], “binds”.
